In US20230220093A1 (published 2023):
One block for each binder: values may come before it.

Key:
[1] = molecular target: T1, human serum albumin (HSA) (Sigma-Aldrich) (human, UniProt P02768 25-609); assay: BLI (Octet RED), average of two runs
Method: (§1) The binding and dissociation kinetics were obtained using Octet QK software. Binding rate constants were calculated such that the observed binding curves are fitted to a 1:1 binding model.

[2] = molecular target: T1, human serum albumin (HSA) …; assay: BLI (Octet RED)
Method: as §1

[3] = molecular target: T1, human serum albumin (HSA) …; assay: BLI (Octet RED), second run
Method: as §1

[4] = molecular target: T1, human serum albumin (HSA) …; assay: BLI (Octet RED), HSA immobilised on AR2G biosensor, first run
Method: as §1

[5] = molecular target: T2, recombinant human CD40L (rhCD40L-his) (human, UniProt P29965 113-261, limits assumed); assay: BLI (Octet RED), CD40L immobilised on AR2G biosensor
T2 construct: The construct is purified by IMAC and named rhCD40L-his; also called rhCD40L antigen; soluble CD40L
T2 sequence (looked up): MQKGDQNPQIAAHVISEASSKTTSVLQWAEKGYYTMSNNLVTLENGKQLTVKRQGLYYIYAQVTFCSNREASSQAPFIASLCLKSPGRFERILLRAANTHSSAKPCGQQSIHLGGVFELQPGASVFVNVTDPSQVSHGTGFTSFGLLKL
From the text: (§2) The purified antibodies were continuously treated in a 1× kinetic buffer at pH 7.4 for two-fold dilution.

[6] = molecular target: T1, human serum albumin (HSA) …; assay: BLI (Octet RED), HSA immobilised on AR2G biosensor
From the text: as §2

[7] = molecular target: T3, recombinant human TNF-α protein (BioLegend) (human, UniProt P01375 77-233); assay: BLI (Octet RED), TNF-α immobilised on AR2G biosensor
T3 construct: also called soluble TNF-α; recombinant soluble TNF-α protein
From the text: as §2

[8] = molecular target: T3, recombinant human TNF-α protein …; assay: cell-based or functional assay
[9] = molecular target: T2, recombinant human CD40L (rhCD40L-his); assay: ELISA, CD40L coated, anti-human Fd-HRP
From the text: HRP-conjugated goat anti-human Fd antibodies were used as secondary antibodies.

[10] = molecular target: T4, cellular membrane CD40L expressed on D1.1 cells (CRL-10915) (UniProt P29965 1-261, limits assumed); assay: flow cytometry on D1.1 cells, anti-human kappa-FITC
T4 construct: whole, on cells; also called mCD40L; cell membrane CD40L
T4 sequence (looked up): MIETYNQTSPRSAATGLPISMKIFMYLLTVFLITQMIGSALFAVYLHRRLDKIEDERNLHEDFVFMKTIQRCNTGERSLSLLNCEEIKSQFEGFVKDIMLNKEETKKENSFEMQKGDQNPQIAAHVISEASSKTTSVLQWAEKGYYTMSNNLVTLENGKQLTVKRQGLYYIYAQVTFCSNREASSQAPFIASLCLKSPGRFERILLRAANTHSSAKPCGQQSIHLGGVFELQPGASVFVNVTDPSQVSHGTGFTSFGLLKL

T3 sequence (P01375 77-233 limits assumed): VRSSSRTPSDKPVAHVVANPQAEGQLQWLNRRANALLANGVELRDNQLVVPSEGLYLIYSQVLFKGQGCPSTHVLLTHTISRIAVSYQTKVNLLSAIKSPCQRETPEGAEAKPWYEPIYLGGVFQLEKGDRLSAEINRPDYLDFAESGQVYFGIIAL

Kd [1]: 0.688 nM
koff [1]: 0.00056 s⁻¹
kon [1]: 804000 M⁻¹ s⁻¹
fold of KD against SL335-HSA KD [2]: ~2.6 fold
Kd [3]: 0.628 nM
Kd [4]: 0.748 nM
B1: APB-A1, recombinant antibody (anti-CD40L scFv)2-anti-HSA Fab (bispecific antibody)
heavy: DIVLTQSPATLSVSPGERATISCRASQRVSSSTYSYMHWYQQKPGQPPKLLIKYASNLESGVPARFSGSGSGTDFTLTISSVEPEDFATYYCQHSWEIPPTFGGGTKLEIKRGGGGSGGGGSGGGGSQVQLVQSGAEVVKPGASVKLSCKASGYIFTSYYMYWVKQAPGQGLEWIGEINPSNGDTNFNEKFKSKATLTVDKSASTAYMELSSLRSEDTAVYYCTRSDGRNDMDSWGQGTLVTVSSGGGGSGGGGSGGGGSQVQLVQSGGGPVKPGGSLRLSCAASGFMFRAYSMNWVRQAPGKGLEWVSSISSSGRYIHYADSVKGRFTISRDNAKNSLYLQMNSLRAEDTAVYYCARETVMAGKALDYWGQGTLVTVSSASTKGPSVFPLAPSSKSTSEGTAALGCLVKDYFPEPVTVSWNSGALTSGVHTFPAVLQSSGLYSLSSVVTVPSSSLGTQTYICNVNHKPSNTKVDKKVEPKSS
light: DIVLTQSPATLSVSPGERATISCRASQRVSSSTYSYMHWYQQKPGQPPKLLIKYASNLESGVPARFSGSGSGTDFTLTISSVEPEDFATYYCQHSWEIPPTFGGGTKLEIKRGGGGSGGGGSGGGGSQVQLVQSGAEVVKPGASVKLSCKASGYIFTSYYMYWVKQAPGQGLEWIGEINPSNGDTNFNEKFKSKATLTVDKSASTAYMELSSLRSEDTAVYYCTRSDGRNDMDSWGQGTLVTVSSGSTSGSGKPGSGEGSTKGDIVLTQSPGTLSLSPGETATLSCRASQSVGSNLAWYQQKPGQAPRLLIYGASTGATGVPARFSGSRSGTDFTLTITSLQPEDFATYYCQQYYSFLAKTFGQGTQLEIKRTVAAPSVFIFPPSDEQLKSGTASVVCLLNNFYPREAKVQWKVDNALQSGNSQESVTEQDSKDSTYSLSNTLTLSKADYEKHKVYACEVTHQGLSSPVTKSFNRGES
notes: also called (anti-hu5c8 scFv)2-SL335; (scFv)2-Fab

Kd [5]: 0.192 nM
koff [5]: 0.000113 s⁻¹
kon [5]: 590000 M⁻¹ s⁻¹
Kd [6]: 0.765 nM
koff [6]: 0.00042 s⁻¹
kon [6]: 549000 M⁻¹ s⁻¹
Kd [7]: 0.164 nM
koff [7]: 3.82e-05 s⁻¹
kon [7]: 230000 M⁻¹ s⁻¹
IC50, HEK-Blue reporter (SEAP), soluble TNF-α 10 ng/ml (FIG. 22B) [8]: 3.05 nM
fold lower binding capacity against anti-human CD40L IgG1 (ruplizumab) [9]: ~1.5 fold
B2: APB-B1a, (anti-CD40L scFv)2-(anti-HSA Fab)-(anti-TNF-α Fv) (bispecific antibody)
heavy: DIVLTQSPATLSVSPGERATISCRASQRVSSSTYSYMHWYQQKPGQPPKLLIKYASNLESGVPARFSGSGSGTDFTLTISSVEPEDFATYYCQHSWEIPPTFGQGTKLEIKRGGGGSGGGGSGGGGSQVQLVQSGAEVVKPGASVKLSCKASGYIFTSYYMYWVKQAPGQGLEWIGEINPSNGDTNFNEKFKSKATLTVDKSASTAYMELSSLRSEDTAVYYCTRSDGRNDMDSWGQGTLVTVSSGGGGSGGGGSGGGGSQVQLVQSGGGPVKPGGSLRLSCAASGFMFRAYSMNWVRQAPGKGLEWVSSISSSGRYIHYADSVKGRFTISRDNAKNSLYLQMNSLRAEDTAVYYCARETVMAGKALDYWGQGTLVTVSSASTKGPSVFPLAPSSKSTSEGTAALGCLVKDYFPEPVTVSWNSGALTSGVHTFPAVLQSSGLYSLSSVVTVPSSSLGTQTYICNVNHKPSNTKVDKKVEPKSSGGGGSGGGGSGGGGSEVQLVESGGGLVQPGGSLRLSCAASGYVFTDYGMNWVRQAPGKGLEWMGWINTYIGEPIYADSVKGRFTFSLDTSKSTAYLQMNSLRAEDTAVYYCARGYRSYAMDYWGQGTLVTVSS
light: DIVLTQSPATLSVSPGERATISCRASQRVSSSTYSYMHWYQQKPGQPPKLLIKYASNLESGVPARFSGSGSGTDFTLTISSVEPEDFATYYCQHSWEIPPTFGQGTKLEIKRGGGGSGGGGSGGGGSQVQLVQSGAEVVKPGASVKLSCKASGYIFTSYYMYWVKQAPGQGLEWIGEINPSNGDTNFNEKFKSKATLTVDKSASTAYMELSSLRSEDTAVYYCTRSDGRNDMDSWGQGTLVTVSSGSTSGSGKPGSGEGSTKGDIVLTQSPGTLSLSPGETATLSCRASQSVGSNLAWYQQKPGQAPRLLIYGASTGATGVPARFSGSRSGTDFTLTITSLQPEDFATYYCQQYYSFLAKTFGQGTQLEIKRTVAAPSVFIFPPSDEQLKSGTASVVCLLNNFYPREAKVQWKVDNALQSGNSQESVTEQDSKDSTYSLSNTLTLSKADYEKHKVYACEVTHQGLSSPVTKSFNRGESGGGGSGGGGSGGGGSDIQMTQSPSSLSASVGDRVTITCKASQNVGTNVAWYQQKPGKAPKALIYSASFLYSGVPYRFSGSGSGTDFTLTISSLQPEDFATYYCQQYNIYPLTFGQGTKVEIKR
notes: also called APB-1a; (scFv)2-Fab-Fv (certolizumab)
IC50, inhibition of TNF-α mediated cytotoxicity, L929 mouse cells, HSA present (CCK-8) [8]: 5.3 nM

binding result [10]: no binding
Kd [6]: 0.286 nM
koff [6]: 0.000288 s⁻¹
kon [6]: 1.01e+06 M⁻¹ s⁻¹
B3: SL335 Fab (anti-HSA Fab) (Fab, V domains shown)
VH: QVQLVQSGGGPVKPGGSLRLSCAASGFMFRAYSMNWVRQAPGKGLEWVSSISSSGRYIHYADSVKGRFTISRDNAKNSLYLQMNSLRAEDTAVYYCARETVMAGKALDYWGQGTLVTVSS
VL: DIVLTQSPGTLSLSPGETATLSCRASQSVGSNLAWYQQKPGQAPRLLIYGASTGATGVPARFSGSRSGTDFTLTITSLQPEDFATYYCQQYYSFLAKTFGQGTQLEIKR
notes: also called anti-HSA Fab (SL335)
